The RNAGym collection of RNA variant scans (doi:10.1073/pnas.2313332121)

B1: TPR t1 (parent)
chain: GACCAAUCUGCCCUCAGAGCUCGAGAACAUCUUCGGAUGCAGAGGAGGCAGGCUUCGGUGGCGCGAUAGCGCCAACGUCCUCAACCUCCAAUGCAUCCCACCACAUGAUGAUGCCUGAAGAGCCUUGGUUUUUUG

Variants of: B1
Experiment: polymerase ribozyme fitness, log enrichment relative to wild type (log ratio); higher = more active; in vitro selection for triplet polymerase activity
Summary of the method: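 A single round of triplicate in vitro selection, including frozen incubation at −7 °C, was applied to PCR-built, transcribed mutant libraries of each subunit of a heterodimeric triplet polymerase ribozyme. Illumina sequencing of input and output libraries retained genotypes with ≥10 input reads and ≥1 read per output. Fitness is the base-2 logarithm of genotype enrichment divided by wild-type enrichment, from inverse-variance-weighted replicate averages.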

Going from C13G G52U C70U C123A to C13G G71A G128U, the “polymerase ribozyme fitness (log ratio)” value falls from -1.13 to -4.42.

Compared with C13U C70A A84U, C13A G36C G60U A66U A95C is lower in “polymerase ribozyme fitness (log ratio)” value: -1.83 for the first, -6.15 for the second.

Going from C13U C20A U38G to U14A C70G U125A, the “polymerase ribozyme fitness (log ratio)” value falls from -4.15 to -4.4.

First: C13A U112A
Second: U14C G45A G122A
The “polymerase ribozyme fitness (log ratio)” value of the first is higher: -0.401 for the first, -3.73 for the second.

Going from C13U U14A A27U G47C to C13A G120A, the “polymerase ribozyme fitness (log ratio)” value rises from -6.21 to -0.19.

First: C13G C98U
Second: C13U C72G A74U G93A C114G
The “polymerase ribozyme fitness (log ratio)” value of the first is higher: -2.7 for the first, -4.31 for the second.

First: U14A U116A A121G
Second: C13U G113U
The “polymerase ribozyme fitness (log ratio)” value of the first is higher: 0.0546 for the first, -2.4 for the second.

Compared with C13G C101A, U14C A37C is higher in “polymerase ribozyme fitness (log ratio)” value: -2.61 for the first, -2.09 for the second.

Going from C13U C20G G63C to U14A A37U G93U U132A, the “polymerase ribozyme fitness (log ratio)” value rises from -4.8 to -4.47.

Compared with U14A G63A U125A, C13U G117A is higher in “polymerase ribozyme fitness (log ratio)” value: -2.94 for the first, -1.27 for the second.

First: U14A C115U
Second: C13U A46U
The “polymerase ribozyme fitness (log ratio)” value of the first is lower: -3.52 for the first, -0.902 for the second.

U14A G52A and C13G A43G are within 0.2 log units of each other in “polymerase ribozyme fitness (log ratio)” value: -3.3 for the first, -3.37 for the second.

Going from U14A C49U G52U C76A to C13G C49G, the “polymerase ribozyme fitness (log ratio)” value rises from -4.51 to -2.28.

Compared with C13U U55G C79U, U14G C73U is lower in “polymerase ribozyme fitness (log ratio)” value: 0.324 for the first, -1.04 for the second.

Compared with C13U A26G G58A, C13U G39U G61C is higher in “polymerase ribozyme fitness (log ratio)” value: -3.1 for the first, -1.9 for the second.

Going from C13G C85U to C13U U112C, the “polymerase ribozyme fitness (log ratio)” value rises from -2.91 to 1.07.

C13G A50G G71A U106A C124A G127U and C13G G42U C53A U87C C88U A121C C123A are within 0.2 log units of each other in “polymerase ribozyme fitness (log ratio)” value: -0.731 for the first, -0.648 for the second.

Going from U14A U54A C56U U130G to U14C A18G G63A U78C G117U, the “polymerase ribozyme fitness (log ratio)” value falls from -3.42 to -5.13.

First: C13G C62U A100C U112C
Second: U14A C31U U87C U112G
The “polymerase ribozyme fitness (log ratio)” value of the first is higher: -1.47 for the first, -6.24 for the second.

First: C13U G36A C88U
Second: U14A G57A G61A A90G C124A
The “polymerase ribozyme fitness (log ratio)” value of the first is lower: -0.556 for the first, 1.08 for the second.

Compared with C13G G63U C102A, C13U G19C G48U is higher in “polymerase ribozyme fitness (log ratio)” value: -5.61 for the first, -3.4 for the second.

C13G A43U C101U and U14A C70G G77C U112C A119G U131G are within 0.2 log units of each other in “polymerase ribozyme fitness (log ratio)” value: -3.57 for the first, -3.76 for the second.

Going from C13U C70A to C13G C53G C115A, the “polymerase ribozyme fitness (log ratio)” value falls from -0.46 to -1.47.

Compared with C13U G39A G58U C79G C97U, C13U G60C is higher in “polymerase ribozyme fitness (log ratio)” value: -2.64 for the first, -0.502 for the second.

First: U14G G110A U130A
Second: U14G G42U G45C C64U C101U C123A G135U
The “polymerase ribozyme fitness (log ratio)” value of the first is higher: -3.04 for the first, -4.44 for the second.

Going from C13A U32C A100C to U14A A41C, the “polymerase ribozyme fitness (log ratio)” value falls from -2.75 to -4.27.

Compared with C13U A108G G120A, C13A G52A G128C is lower in “polymerase ribozyme fitness (log ratio)” value: -1.12 for the first, -4.3 for the second.

Going from C13U C73G A83G to C13U A18U G42C U87A, the “polymerase ribozyme fitness (log ratio)” value rises from -1.22 to -0.601.

Going from U14G A50U C56U G93U U112A to C13G C86G A90C A95G, the “polymerase ribozyme fitness (log ratio)” value falls from -3.22 to -4.51.

Going from C13U C40A C82A C89A to C13U U78A, the “polymerase ribozyme fitness (log ratio)” value rises from -2.38 to 0.102.

First: C13U C15U A37U A41U U59G
Second: C13U U55A C88U
The “polymerase ribozyme fitness (log ratio)” value of the first is lower: -1.74 for the first, -0.31 for the second.

First: C13U G42U C70U A121C
Second: C13U C72G C85G C123U
The “polymerase ribozyme fitness (log ratio)” value of the first is higher: 0.0681 for the first, -0.494 for the second.

Compared with C13U C56G U59G A95C, C13G G51U C72G A111C is lower in “polymerase ribozyme fitness (log ratio)” value: -2.3 for the first, -6.15 for the second.

Going from C13U C22A A26C C56G G122A to U14A A46C U112A A119G G122C, the “polymerase ribozyme fitness (log ratio)” value rises from -4.98 to -0.328.

First: C13A G60U A91U G120A
Second: C13U C56G
The “polymerase ribozyme fitness (log ratio)” value of the first is lower: -2.31 for the first, 0.205 for the second.

Going from C13U C28G G63U C98U C115U to C13U A50U A66G C88U A90U U109A U116C, the “polymerase ribozyme fitness (log ratio)” value rises from -5.89 to -5.37.

Compared with C13G A108G, C13A G71A G120A A121U is higher in “polymerase ribozyme fitness (log ratio)” value: -3.4 for the first, -0.704 for the second.

Compared with C13U G19U G52U C64U, C13G G71U U112C is higher in “polymerase ribozyme fitness (log ratio)” value: -3.78 for the first, -0.426 for the second.

Going from C13U A84U G113U U116A A119G G135U to C13G C40U G47C C62U U78A, the “polymerase ribozyme fitness (log ratio)” value rises from -6.59 to -3.84.

Going from U14C G60C C64A U109G to C13U A50U G52C C53A U87A, the “polymerase ribozyme fitness (log ratio)” value rises from -6.09 to -3.76.

First: U14G G71A G120C
Second: C13G C22A G45U G77A A111U
The “polymerase ribozyme fitness (log ratio)” value of the first is higher: -0.108 for the first, -6.13 for the second.

Compared with U14G G47U C101G G120U, C13U C34A C70A U106A C114A is lower in “polymerase ribozyme fitness (log ratio)” value: -4.67 for the first, -6.64 for the second.
